Among the data in article PMC3824616 are percent reduction of co-immunoprecipitation against WT eNOS values, retold here.

The experiment addresses human constitutively active c-Src, adenovirus-expressed (human) (UniProt P12931). Kind of experiment: co-IP.

B1: phospho-mimetic S116D eNOS mutant, adenovirus-expressed (enzyme)
chain: MGNLKSVGQEPGPPCGLGLGLGLGLCGKQGPASPAPEPSRAPAPATPHAPDHSPAPNSPTLTRPPEGPKFPRVKNWELGSITYDTLCAQSQQDGPCTPRCCLGSLVLPRKLQTRPDPGPPPAEQLLSQARDFINQYYSSIKRSGSQAHEERLQEVEAEVASTGTYHLRESELVFGAKQAWRNAPRCVGRIQWGKLQVFDARDCSSAQEMFTYICNHIKYATNRGNLRSAITVFPQRAPGRGDFRIWNSQLVRYAGYRQQDGSVRGDPANVEITELCIQHGWTPGNGRFDVLPLLLQAPDEAPELFVLPPELVLEVPLEHPTLEWFAALGLRWYALPAVSNMLLEIGGLEFSAAPFSGWYMSTEIGTRNLCDPHRYNILEDVAVCMDLDTRTTSSLWKDKAAVEINLAVLHSFQLAKVTIVDHHAATVSFMKHLDNEQKARGGCPADWAWIVPPISGSLTPVFHQEMVNYILSPAFRYQPDPWKGSATKGAGITRKKTFKEVANAVKISASLMGTLMAKRVKATILYASETGRAQSYAQQLGRLFRKAFDPRVLCMDEYDVVSLEHEALVLVVTSTFGNGDPPENGESFAAALMEMSGPYNSSPRPEQHKSYKIRFNSVSCSDPLVSSWRRKRKESSNTDSAGALGTLRFCVFGLGSRAYPHFCAFARAVDTRLEELGGERLLQLGQGDELCGQEEAFRGWAKAAFQASCETFCVGEEAKAAAQDIFSPKRSWKRQRYRLSTQAEGLQLLPGLIHVHRRKMFQATVLSVENLQSSKSTRATILVRLDTAGQEGLQYQPGDHIGICPPNRPGLVEALLSRVEDPPPPTESVAVEQLEKGSPGGPPPSWVRDPRLPPCTLRQALTFFLDITSPPSPRLLRLLSTLAEEPSEQQELETLSQDPRRYEEWKWFRCPTLLEVLEQFPSVALPAPLLLTQLPLLQPRYYSVSSAPNAHPGEVHLTVAVLAYRTQDGLGPLHYGVCSTWLSQLKTGDPVPCFIRGAPSFRLPPDPYVPCILVGPGTGIAPFRGFWQERLHDIESKGLQPAPMTLVFGCRCSQLDHLYRDEVQDAQERGVFGRVLTAFSREPDSPKTYVQDILRTELAAEVHRVLCLERGHMFVCGDVTMATSVLQTVQRILATEGDMELDEAGDVIGVLRDQQRYHEDIFGLTLRTQEVTSRIRTQSFSLQERHLRGAVPWAFDPPGPDTPGP
Consider B1, for which the percent reduction of co-immunoprecipitation against WT eNOS is 88%.
